Data as given in patent US20200276302A1 (OSAKA UNIVERSITY, published 2020).

What was measured:
[1] = biological target: soluble mouse PlexinA1 protein (mouse, UniProt P70206 28-1242); experiment: BLI (OctetRED384), antibody on Protein G biosensor, mouse PlexinA1 at 260 nM
Procedure: Note that the L chains of the antibodies derived from the human antibody naive library were not chimerized.
Specifically, the antibodies adjusted to 10 µg/mL by 10× diluted HBS-EP+(GE healthcare, BR-1006-69) were immobilized onto Protein G biosensors (ForteBIO), and human and mouse PlexinA1 adjusted to 260 nM with HBS-EP+ were applied thereto. The Protein G biosensors were regenerated using 10 mmol/L Glycine-HCl, pH 1.5 (GE Healthcare, BR-1003-54). After the measurement, analytical software Data analysis 7.0 (ForteBIO) was used to compute amounts of binding (FIG. 5). […] In FIG. 5, the vertical axis represents amounts of binding to human and mouse PlexinA1.

[2] = biological target: T1, mouse PlexinA1 recombinant protein expressed on Ba/F3 cells (mouse, UniProt P70206 25-1290); experiment: cell ELISA on mouse PlexinA1-expressing Ba/F3 cells against Ba/F3 cells
T1 construct: also called Mouse PlexinA1/BaF3; mouse PlexinA1-expressing cell line
T1 sequence (P70206 other isoform, or with tags, fused parts or gaps limits assumed): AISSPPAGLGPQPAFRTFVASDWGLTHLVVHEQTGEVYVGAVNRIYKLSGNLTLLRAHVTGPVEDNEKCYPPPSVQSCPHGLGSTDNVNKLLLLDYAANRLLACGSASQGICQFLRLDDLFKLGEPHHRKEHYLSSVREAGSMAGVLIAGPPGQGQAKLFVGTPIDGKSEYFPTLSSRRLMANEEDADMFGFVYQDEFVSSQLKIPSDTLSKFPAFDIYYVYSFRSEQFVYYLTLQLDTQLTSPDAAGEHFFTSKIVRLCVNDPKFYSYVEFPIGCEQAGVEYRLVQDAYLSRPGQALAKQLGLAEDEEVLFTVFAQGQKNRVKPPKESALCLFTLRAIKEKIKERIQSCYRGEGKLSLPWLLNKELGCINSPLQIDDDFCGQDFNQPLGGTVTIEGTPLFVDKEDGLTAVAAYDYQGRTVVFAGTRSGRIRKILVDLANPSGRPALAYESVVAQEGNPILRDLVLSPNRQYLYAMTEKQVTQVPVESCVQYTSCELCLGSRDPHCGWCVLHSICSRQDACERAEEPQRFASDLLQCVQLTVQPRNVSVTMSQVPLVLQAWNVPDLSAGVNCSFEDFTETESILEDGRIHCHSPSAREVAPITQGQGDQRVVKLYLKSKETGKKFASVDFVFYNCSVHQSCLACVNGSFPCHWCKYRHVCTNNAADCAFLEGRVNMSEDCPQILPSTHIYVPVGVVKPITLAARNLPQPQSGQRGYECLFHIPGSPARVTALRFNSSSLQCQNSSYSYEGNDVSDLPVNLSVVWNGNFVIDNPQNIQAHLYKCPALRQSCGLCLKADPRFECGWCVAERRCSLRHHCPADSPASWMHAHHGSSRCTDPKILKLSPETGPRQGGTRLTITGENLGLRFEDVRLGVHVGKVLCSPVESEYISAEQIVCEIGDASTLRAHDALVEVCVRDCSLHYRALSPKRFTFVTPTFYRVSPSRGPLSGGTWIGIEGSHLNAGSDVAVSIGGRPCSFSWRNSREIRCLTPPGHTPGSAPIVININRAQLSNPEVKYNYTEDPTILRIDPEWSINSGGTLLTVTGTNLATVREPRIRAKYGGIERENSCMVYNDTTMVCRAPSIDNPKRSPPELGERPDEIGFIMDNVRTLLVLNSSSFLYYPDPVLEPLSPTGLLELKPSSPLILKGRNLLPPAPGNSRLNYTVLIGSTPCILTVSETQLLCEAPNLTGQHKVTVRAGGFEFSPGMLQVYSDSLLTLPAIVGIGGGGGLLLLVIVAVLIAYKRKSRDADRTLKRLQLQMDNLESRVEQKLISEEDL
Procedure: The antibodies obtained above were subjected to cell ELISA by the following procedure. Initially, 384-well plates were prepared, and mouse PlexinA1-expressing Ba/F3 cells and Ba/F3 cells (see Example 11) were each captured onto the bottom of different wells. After washing each well of the plates with PBS, the prepared antibodies were added at 20 μL/well, and the mixture was allowed to stand at room temperature for 1 hour. Then, each well was washed with 0.05% Tween 20-PBS, HRP-labeled anti-rabbit IgG antibody (Betyl, A120-101P) diluted 10000 times with 2% FBS-PBS was added at 20 μL/well, and the mixture was allowed to stand at room temperature for 1 hour. After washing each well of the plates with 0.05% Tween 20-PBS, the substrate solution (ABTS peroxidase substrate system) was dispensed at 20 μL/well to develop color for 1 hour at room temperature. Then, binding of the antibodies to mouse PlexinA1 was confirmed by measuring absorbance at 405 nm using SpectraMax from Molecular Devices, LLC.

Sequence of soluble mouse PlexinA1 protein (P70206 other isoform, or with tags, fused parts or gaps limits assumed): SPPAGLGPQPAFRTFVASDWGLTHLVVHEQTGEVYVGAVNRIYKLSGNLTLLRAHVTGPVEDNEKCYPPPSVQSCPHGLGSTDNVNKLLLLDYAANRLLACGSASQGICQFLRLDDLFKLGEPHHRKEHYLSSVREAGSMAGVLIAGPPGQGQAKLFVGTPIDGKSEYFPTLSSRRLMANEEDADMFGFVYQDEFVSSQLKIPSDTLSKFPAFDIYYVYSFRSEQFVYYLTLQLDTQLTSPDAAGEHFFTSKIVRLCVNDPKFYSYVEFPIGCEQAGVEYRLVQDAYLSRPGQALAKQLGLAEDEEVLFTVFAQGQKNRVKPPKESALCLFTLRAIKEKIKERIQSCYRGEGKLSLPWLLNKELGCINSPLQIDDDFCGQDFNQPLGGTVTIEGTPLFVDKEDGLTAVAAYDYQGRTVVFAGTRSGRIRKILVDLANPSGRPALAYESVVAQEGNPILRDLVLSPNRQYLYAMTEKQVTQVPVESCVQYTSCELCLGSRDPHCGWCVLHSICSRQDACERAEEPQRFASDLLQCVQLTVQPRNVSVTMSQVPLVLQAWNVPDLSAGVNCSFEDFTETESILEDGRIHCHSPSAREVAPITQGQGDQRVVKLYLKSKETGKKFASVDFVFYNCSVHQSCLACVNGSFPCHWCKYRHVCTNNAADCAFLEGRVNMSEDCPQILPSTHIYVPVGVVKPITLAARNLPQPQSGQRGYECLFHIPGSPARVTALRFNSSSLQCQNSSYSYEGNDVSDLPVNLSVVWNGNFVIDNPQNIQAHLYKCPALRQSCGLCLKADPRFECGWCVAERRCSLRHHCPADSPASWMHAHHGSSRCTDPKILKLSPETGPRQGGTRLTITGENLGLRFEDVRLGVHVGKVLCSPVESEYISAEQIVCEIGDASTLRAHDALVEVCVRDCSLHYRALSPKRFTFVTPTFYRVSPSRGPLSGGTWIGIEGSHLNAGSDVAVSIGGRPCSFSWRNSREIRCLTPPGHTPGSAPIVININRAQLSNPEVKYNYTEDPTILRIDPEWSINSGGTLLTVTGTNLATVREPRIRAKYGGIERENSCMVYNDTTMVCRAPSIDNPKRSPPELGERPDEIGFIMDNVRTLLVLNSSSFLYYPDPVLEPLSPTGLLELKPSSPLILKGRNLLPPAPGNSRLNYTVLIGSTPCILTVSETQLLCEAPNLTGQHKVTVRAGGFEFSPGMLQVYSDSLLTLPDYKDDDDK

binding result [1]	binding result [2]	Binder
binds	–	mouse chimeric human/mouse cross-reactive PlexinA1 antibody 359B2-2-3-6-mFc (antibody, mouse IgG2a, lambda, V domains shown, Mouse IgG2a heavy chain constant region; human light chain kept) VH: QVQLVQSGAEVKKPGASVKVSCKASGYTFTSYYMHWVRQAPGQGLEWMGIINPSGGSTSYAQKFQGRVTMTRDTSTSTVYMELSSLRSEDTAVYYCARAPGHYYYGMDVWGQGTTVTVSS VL: SYELTQPPSVSVSPGQTASITCSGDKLEDKYASWYQLKPGHSPVLVIYQDSKRPSGIPERFSGSNSGNTATLTISGTQAMDEADYYCRAWDSNTGDVVFGGGTKLTVLR
–	binds	anti-mouse PlexinA1 antibody PXB361b (antibody, Antagonist antibody) heavy: QSLEESGGDLVKPEGSLTLSCTASGFTISSSYWICWVRQAPGKGLEWIACIYVGSGDGYTYYASWAKGRFTISKTSSTTVTLRMTSLTAADTATYFCARGGDGGVGGFDFFDPWGPGTLVTVSSGQPKAPSVFPLAPCCGDTPSSTVTLGCLVKGYLPEPVTVTWNSGTLTNGVRTFPSVRQSSGLYSLSSVVSVTSSSQPVTCNVAHPATNTKVDKTVAPSTCSKPMCPPPELLGGPSVFIFPPKPKDTLMISRTPEVTCVVVDVSQDDPEVQFTWYINNEQVRTARPPLREQQFNSTIRVVSTLPIAHQDWLRGKEFKCKVHNKALPAPIEKTISKARGQPLEPKVYTMGPPREELSSRSVSLTCMINGFYPSDISVEWEKNGKAEDNYKTTPTVLDSDGSYFLYSKLSVPTSEWQRGDVFTCSVMHEALHNHYTQKSISRSPGK light: DVVLTQTPASVSEPVGGTVTIKCQATESINRNCAWYQQKPGQPPKLLIYRASTLASGVPSRFKGSGSGTEFTLTISDLECADAATYYCQCTDYGTYYVAFGGGTEVVVKGDPVAPTVLIFPPAADQVATGTVTIVCVANKYFPDVTVTWEVDGTTQTTGIENSKTPQNSADCTYNLSSTLTLTSTQYNSHKEYTCKVTQGTTSVVQSFNRGDC
binds	–	mouse chimeric anti-mouse PlexinA1 antibody PXB693-mFc (antibody, mouse IgG2a, kappa, Rabbit variable regions on mouse IgG2a heavy and mouse light chain constant regions; Agonist antibody) heavy: QSVEESGGRLVTPGTPLTLTCTVSGFSLSSSAMTWVRQAPGKGLEWIGIINNSNIAAYASWTKGRFTISKTSTTVDLKITSPIIEDTATYFCARGDVGTTHYFNIWGPGTLVTVSSAKTTAPSVYPLAPVCGDTTGSSVTLGCLVKGYFPEPVTLTWNSGSLSSGVHTFPAVLQSDLYTLSSSVTVTSSTWPSQSITCNVAHPASSTKVDKKIEPRGPTIKPCPPCKCPAPNLRRGPKVFIFPPKIKDVLMISLSPIVTCVVVDVSEDDPDVQISWFVNNVEVHTAQTQTHREDYNSTLRVVSALPIQHQDWMSGKEFKCKVNNKDLPAPIERTISKPKGSVRAPQVYVLPPPEEEMTKKQVTLTCMVTDFMPEDIYVEWTNNGKTELNYKNTEPVLDSDGSYFMYSKLRVEKKNWVERNSYSCSVVHEGLHNHHTTKSFSRTPGK light: AAVLTQTPSPVSAVVGGTVSISCQSSKSVYNNNWLSWFQQKPGQPPKLLIYGASTLASGVPSRFKGSGSGTQFTLAISDVQCDDAATYYCAGGYINSDNFAFGGGTEVVVKRADAAPTVSIFPPSSEQLTSGGASVVCFLNNFYPKDINVKWKIDGSERQNGVLNSWTDQDSKDSTYSMSSTLTLTKDEYERHNSYTCEATHKTSTSPIVKSFNRNEC
binds	–	mouse chimeric anti-mouse PlexinA1 antibody PXB361b-mFc (antibody, mouse IgG1, kappa, Rabbit variable regions on mouse IgG1 heavy and mouse light chain constant regions; Antagonist antibody) heavy: QSLEESGGDLVKPEGSLTLSCTASGFTISSSYWICWVRQAPGKGLEWIACIYVGSGDGYTYYASWAKGRFTISKTSSTTVTLRMTSLTAADTATYFCARGGDGGVGGFDFFDPWGPGTLVTVSSAKTTPPSVYPLAPGSAAQTNSMVTLGCLVKGYFPEPVTVTWNSGSLSSGVHTFPAVLQSDLYTLSSSVTVPSSTWPSETVTCNVAHPASSTKVDKKIVPRDCGCKPCICTVKEVSKVFIFPPKPKDVLTITLTPKVTCVVVDISKDDPEVQFSWFVDDVEVHTAQTQPREEQFNSTFRSVSELPIMHQDWLNGKEFKCRVNSAAFPAPIEKTISKTKGRPKAPQVYTIPPPKEQMAKDKVSLTCMITDFFPEDITVEWQWNGQPAENYKNTQPIMDTDGSYFVYSKLNVQKSNWEAGNTFTCSVLHEGLHNHHTEKSLSHSPGK light: DVVLTQTPASVSEPVGGTVTIKCQATESINRNCAWYQQKPGQPPKLLIYRASTLASGVPSRFKGSGSGTEFTLTISDLECADAATYYCQCTDYGTYYVAFGGGTEVVVKRADAAPTVSIFPPSSEQLTSGGASVVCFLNNFYPKDINVKWKIDGSERQNGVLNSWTDQDSKDSTYSMSSTLTLTKDEYERHNSYTCEATHKTSTSPIVKSFNRNEC
–	binds	anti-mouse PlexinA1 antibody PXB693 (antibody) heavy: QSVEESGGRLVTPGTPLTLTCTVSGFSLSSSAMTWVRQAPGKGLEWIGIINNSNIAAYASWTKGRFTISKTSTTVDLKITSPIIEDTATYFCARGDVGTTHYFNIWGPGTLVTVSSGQPKAPSVFPLAPCCGDTPSSTVTLGCLVKGYLPEPVTVTWNSGTLTNGVRTFPSVRQSSGLYSLSSVVSVTSSSQPVTCNVAHPATNTKVDKTVAPSTCSKPMCPPPELLGGPSVFIFPPKPKDTLMISRTPEVTCVVVDVSQDDPEVQFTWYINNEQVRTARPPLREQQFNSTIRVVSTLPIAHQDWLRGKEFKCKVHNKALPAPIEKTISKARGQPLEPKVYTMGPPREELSSRSVSLTCMINGFYPSDISVEWEKNGKAEDNYKTTPTVLDSDGSYFLYSKLSVPTSEWQRGDVFTCSVMHEALHNHYTQKSISRSPGK light: AAVLTQTPSPVSAVVGGTVSISCQSSKSVYNNNWLSWFQQKPGQPPKLLIYGASTLASGVPSRFKGSGSGTQFTLAISDVQCDDAATYYCAGGYINSDNFAFGGGTEVVVKGDPVAPTVLIFPPAADQVATGTVTIVCVANKYFPDVTVTWEVDGTTQTTGIENSKTPQNSADCTYNLSSTLTLTSTQYNSHKEYTCKVTQGTTSVVQSFNRGDC
